Patent publication US7572764B2, “Uses of chemically-modified cholinesterases for detoxification of organophosporus compounds” (priority 2001, dated 2009)

B1: AChE-PEG-5000 high ratio (conjugate, UniProt P22303 32-614, looked up)
Acetylcholinesterase: EGREDAELLVTVRGGRLRGIRLKTPGGPVSAFLGIPFAEPPMGPRRFLPPEPKQPWSGVVDATTFQSVCYQYVDTLYPGFEGTEMWNPNRELSEDCLYLNVWTPYPRPTSPTPVLVWIYGGGFYSGASSLDVYDGRFLVQAERTVLVSMNYRVGAFGFLALPGSREAPGNVGLLDQRLALQWVQENVAAFGGDPTSVTLFGESAGAASVGMHLLSPPSRGLFHRAVLQSGAPNGPWATVGMGEARRRATQLAHLVGCPPGGTGGNDTELVACLRTRPAQVLVNHEWHVLPQESVFRFSFVPVVDGDFLSDTPEALINAGDFHGLQVLVGVVKDEGSYFLVYGAPGFSKDNESLISRAEFLAGVRVGVPQVSDLAAEAVVLHYTDWLHPEDPARLREALSDVVGDHNVVCPVAQLAGRLAAQGARVYAYVFEHRASTLSWPLWMGVPHGYEIEFIFGIPLDPSRNYTAEEKIFAQRLMRYWANFARTGDPNEPRDPKAPQWPPYTAGAQQYVSLDLRPLEVRRGLRAQACAFWNRFLPKLLSATDTLDEAERQWKAEFHRWSSYMVHWKNQFDHYSKQDRCSDL
modifications: PEG-5000, high ratio
B2: PEGylated BChE (partially sialylated) (conjugate, UniProt P06276 29-602, looked up)
Cholinesterase: EDDIIIATKNGKVRGMNLTVFGGTVTAFLGIPYAQPPLGRLRFKKPQSLTKWSDIWNATKYANSCCQNIDQSFPGFHGSEMWNPNTDLSEDCLYLNVWIPAPKPKNATVLIWIYGGGFQTGTSSLHVYDGKFLARVERVIVVSMNYRVGALGFLALPGNPEAPGNMGLFDQQLALQWVQKNIAAFGGNPKSVTLFGESAGAASVSLHLLSPGSHSLFTRAILQSGSFNAPWAVTSLYEARNRTLNLAKLTGCSRENETEIIKCLRNKDPQEILLNEAFVVPYGTPLSVNFGPTVDGDFLTDMPDILLELGQFKKTQILVGVNKDEGTAFLVYGAPGFSKDNNSIITRKEFQEGLKIFFPGVSEFGKESILFHYTDWVDDQRPENYREALGDVVGDYNFICPALEFTKKFSEWGNNAFFYYFEHRSSKLPWPEWMGVMHGYEIEFVFGLPLERRDNYTKAEEILSRSIVKRWANFAKYGNPNETQNNSTSWPVFKSTEQKYLTLNTESTRIMTKLRAQQCRFWTSFFPKVLEMTGNIDEAEWEWKAGFHRWNNYMMDWKNQFNDYTSKKESCVGL
modifications: PEG; partially sialylated

Experiment: Clearance experiments in mice, pharmacokinetic profiles
Protocol: The pharmacokinetic profiles of non-modified and various preparations of PEG-modified AChE were resolved. Clearance experiments in mice (3 to 6 ICR male mice per enzyme sample) and analysis of pharmacokinetic profiles were carried out as described essentially previously [Kronman, C., et al. (1992), Gene 121, 295-304]. The study was approved by the local ethical committee on animal experiments. Mice were injected with the various rHuAChE preparations (40 μg/mouse in 0.2 ml PBS). Residual AChE activity in blood samples was measured and all values were corrected for background hydrolytic activity in the blood (using samples withdrawn 1 hour before performing the experiment). AChE activity values in samples removed immediately after injection were assigned a value of 100% and used for calculation of residual activity. […] This model enables determination of the parameters A and B which represent the fractions of the material removed from the circulation in the first-fast and second-slow elimination phases respectively, and T1/2α and T1/2β which represent the circulatory half-life values of the enzyme in the fast and slow phases. The pharmacokinetic parameters MRT (mean residence time, which reflects the average length of time the administered molecules are retained in the organism) and CL (clearance, which represents the proportionality factor relating the rate of substance elimination to its plasma concentration (CL=dose/area under the concentration-time curve), were independently obtained by analyzing the clearance data according to a noncompartmental pharmacokinetic model using the WinNonlin computer program. The comparative results are set forth in Table 3 below.

Molecule | T1/2[…] (circulatory half-life, fast phase, ICR mice, 40 μg/mouse) [h] | T1/2β (circulatory half-life, slow phase, ICR mice, 40 μg/mouse) [h] | A (% of total) (fraction removed in first-fast elimination phase, ICR mice, 40 μg/mouse) | B (% of total) (fraction removed in second-slow elimination phase, ICR mice, 40 μg/mouse) | MRT (mean residence time, noncompartmental model, mice) [h] | Clearance (noncompartmental model, ICR mice, 40 μg/mouse) [mL/min/kg] | circulatory residence time (in words) (mice)
B1 | 0.467 ± 0.083 | 9 ± 1.17 | 46 ± 3 % of total | 64 ± 3 % of total | 12.3 ± 1.33 | 0.22 | –
B2 | – | – | – | – | – | – | significantly increased
